The results in this text go back to patent US6214588.

The series relates to GAL4(1-147)-VP16 (Saccharomyces cerevisiae / herpes simplex virus?). The following applies: in vitro transcription stimulation with purified holoenzyme, factor a, TBP; 10-fold in nuclear extract.

For the substance pGAL4CG- (+GAL4 site template), the activity was 5 fold.
